{
  "source": "the DeepSol protein solubility set",
  "data": [
    {"experiment": "soluble on expression in E. coli; label from the status in PepcDB or PDB records", "values": [
      {"sequence": "GPHVKSGLQIKKNAIIDDYKVTSQVLGLGINGKVLQIFNKRTQEKFALKMLQDCPKARREVELHWRASQCPHIVRIVDVYENLYAGRKCLLIVMECLDGGELFSRIQDRGDQAFTEREASEIMKSIGEAIQYLHSINIAHRDVKPENLLYTSKRPNAILKLTDFGFAKETTGEKYDKSCDMWSLGVIMYILLCGYPPFYSNHGLAISPGMKTRIRMGQYEFPNPEWSEVSEEVKMLIRNLLKTEPTQRMTITEFMNHPWIMQSTKVPQTPLHTSRVLKEDKERWEDVKEEMTSALATMR", "soluble on expression in E. coli": "soluble"},
      {"sequence": "MPDGGLAAPDRAVLPRAMTPPPSTSRTYDAVIVGGGHNGLVAAAYLARAGRSVLVLERLDHTGGAAVSTKPFAGVDARLSRYSYLVSLLPKKIVRDLGLDFRVRARTVSSYTPVERAGRPTGLLVGGGERRTRESFARLTGSQREYDAWQRFYAMTGHVAQRVFPTLTEPLPTRDELRRRVDDETAWRALFEEPVGVAIEEHFDDDLVRGVALTDALIGTFADAHDPSLAQNRCFLYHVIGGGTGAWDVPVGGMGALTDALAGAARAAGAVLATGHEAVRIEADGHGAEVTFRSADGEGVAAARHVLVNASPRELAALTGDAPPAPAEGAQLKVNMLLTRLPRLRDPDADPREAFAGTFHIAEGYEQLAAAHARAAAGELPAAPPSEIYCHSLTDPTILGPGPAAKGMHTLTLFGLHTPARLFARDNDAVRAELLKSTLAQLDAHLAEPLADCLATDADGRPCIEARSPLDLERDLGLPGGNIFHRELSWPHAQEGTGHWGVETGRARVLLCGAGAVRGGGVSGVPGHNAAMAVLDGTTGLEHHHHHH", "soluble on expression in E. coli": "not soluble"},
      {"sequence": "MGHHHHHHSHMKTTLKMTALAALSAFVLAGCGSHQMKSEGHANMQLQQQAVLGLNWMQDSGEYKALAYQAYNAAKVAFDHAKVAKGKKKAVVADLDETMLDNSPYAGWQVQNNKPFDGKDWTRWVDARQSRAVPGAVEFNNYVNSHNGKVFYVTNRKDSTEKSGTIDDMKRLGFNGVEESAFYLKKDKSAKAARFAEIEKQGYEIVLYVGDNLDDFGNTVYGKLNADRRAFVDQNQGKFGKTFIMLPNANYGGWEGGLAEGYFKKDTQGQIKARLDAVQAWDGK", "soluble on expression in E. coli": "not soluble"},
      {"sequence": "MGSDKIHHHHHHMNTLLKQLKPYPFARLHEAMQGISAPEGMEAVPLHIGEPKHPTPKVITDALTASLHELEKYPLTAGLPELRQACANWLKRRYDGLTVDADNEILPVLGSREALFSFVQTVLNPVSDGIKPAIVSPNPFYQIYEGATLLGGGEIHFANCPAPSFNPDWRSISEEVWKRTKLVFVCSPNNPSGSVLDLDGWKEVFDLQDKYGFIIASDECYSEIYFDGNKPLGCLQAAAQLGRSRQKLLMFTSLSKRSNVPGLRSGFVAGDAELLKNFLLYRTYHGSAMSIPVQRASIAAWDDEQHVIDNRRLYQEKFERVIPILQQVFDVKLPDASFYIWLKVPDGDDLAFARNLWQKAAIQVLPGRFLARDTEQGNPGEGYVRIALVADVATCVKAAEDIVSLYR", "soluble on expression in E. coli": "not soluble"},
      {"sequence": "MHVGIVAQRGNERATSLAGEIREQLRALEVTVWVDTATAEALACAGECGRDTTAFTDCDLVVSIGGDGTFLFAARGAGATPILGVNLGEVGFLNAVAPADAVEAVREEVNRYRETGAVRCREVPRVVAAGDGWASTPALNEVAIQGEQRGHGHGVAVDVRVDGSQYEATRADGVLVATPTGSTAYNLSEGGPLVQPSVDALVVTEMCGADALPPLVTGLDSEIRIRVETLDDGGEGRVVVASDGGRLTRVDPPVEMTVTAADEPARVAGPAADFFEALSKLELEHHHHHH", "soluble on expression in E. coli": "not soluble"},
      {"sequence": "MDSYTSSDEDASRKENEGLNMLNASPEPMEEDDPEEQAEQEEETSRMARPIRSMRKRETTSGESMGDEDEDLEDEEDEDEEAEAREHHESGAHDTSFSNPLSNVDNLIHVGTEYQAIIQPTAEQLEKEPCRDQQIWAFPDEMNENRLTEYISEATGRYQLPIDRALFILNKQSNDFDAAMVQAMRRKEIHDDWTAEEISLFSTCFFHFGKRFKKIHAAMPQRSLSSIIQYYYNTKKVQNYKTMINVHLNETDTYDELFKEVNHLERVPSGYCENCNAKSDLLILNRVMSRHECKPCILYFRLMRVPRPASLRALTKRRQRVLCPEYMKIYVYGYLELMEPANGKAIKRLGIGKEKEEDDDIMVVDDCLLRKPSGPYIVEQSIEADPIDENTCRMTRCFDTPAALALIDNIKRKHHMCVPLVWRVKQTKCMEENEILNEEARQQMFRATMTYSRVPKGEIANWKKDMMALKGRFERFTPELDTTATNGNRSGKVRINYGWSPEEKKNAIRCFHWYKDNFELIAELMATKTVEQIKKFYMDNEKLILESIDTYRAELKSKLGK", "soluble on expression in E. coli": "not soluble"},
      {"sequence": "MGHHHHHHSHMVPSSAETGGTNYLAPGGLSDSQLLLEPGDRSHWCVVAYWEEKTRVGRLYCVQEPSLDIFYDLPQGNGFCLGQLNSDNKSQLVQKVRSKIGCGIQLTREVDGVWVYNRSSYPIFIKSATLDNPDSRTLLVHKVFPGFSIKAFDYEKAYSLQRPNDHEFMQQPWTGFTVQISFVKGWGQCYTRQFISSCPCWLEVIFNSR", "soluble on expression in E. coli": "not soluble"},
      {"sequence": "MSLQNFQTEEISALIQNYDFDKALYKLKSHYSDMTFKEADSLLLANNIVYSENNETQQQQYLANLDTLLRDINNNHSEIASFTIYKNDMILVNTHNLYNHGFYKINSSLENIYFNLSEITDNDDQFAKYFKLLNLFFSTISRDAILSTSDKFNDIAIRKHEHSTNISTAFSQIFNECLKSKFEKNNVKTLFAELATYDIIEILNELIENHLKDTSYHLDNFVEAFTGNVMNSSIIIENLYHQIVVQNKLLQLVLLSFLFLDFDTNIFGDKIETLLDINYKQTFFMSFYEFDSKLTQSSMSMHTLQYPHGVQIFSSSELAGYLEFEIATLYSTPIVDSRLYIAFMQEYVLNWREKMEPPQKAINFFKYILEPLYRRNEIDEEFLLAMSMFNCGRFEQAYEFFTMNDYMLHLANKLPPFLKNVQQNSLWYELLKTFTESSTNAHYYLQLSLLFKTYNRLDLALKCVSKSVEYSMKHPSVEEGHHHHHH", "soluble on expression in E. coli": "soluble"},
      {"sequence": "MGSDKIHHHHHHMNTNTSITIQKPKTDELLLWNLLFADTGRQVLLVAYDIKLFPLLSQKPCTLAEICNELKIFQRPAEAILAVLASIELLEIENNYYSLTLLAKDYLVKSSPTYFGALLEMMIFDERKHISSFDSLKKSLFTNNYPGKKVMESLVKNHDFMRTITFGNNVKLIRGFISSMHGPSMAAALIWPELIDLSEYKLFIDIGGGSAAHSIGATLKWPNLQAVVLELPTVCEIAQEFITHYGLQNRIATQEFDMWSDTFPVGDLHFYSAVYHHWQQEKCQVITKKSFNSLLPGGRIILHEMLFNEQKTGPFPVAAKNLNISLKLGGQQYSGQELSMMLEQAGFIDIEIKPASSYWSIITGRKP", "soluble on expression in E. coli": "not soluble"},
      {"sequence": "MGSDKIHHHHHHMTEDIIKKYRGKLPESILEQWHLFGFAGYLNGLYWITNPDDYAEVIYDWLEETPLPDDDVYHVLARSAFGELLIWGERNYGRYYIKTMEGILHDNGEQLESAEFYGSDFFFLPKKNYLDYTDKNGNKLFDRAVKKLGVLKADEMYAFEPALALGGEESLQHLTKVNLPVHMKLLKQVTPLRLRTFEDLTAALYGTSYSVDDLTSGQDAESQYQESVQAGEVCPRTGYWTTPAQPNTRHYCKKGEVLPEIKEQDWGEVYWYWDGEN", "soluble on expression in E. coli": "not soluble"},
      {"sequence": "MYEWLNALPKAELHLHLEGTLEPELLFALAERNRIALPWNDVETLRKAYAFNNLQEFLDLYYAGADVLRTEQDFYDLTWAYLQKCKAQNVVHVEPFFDPQTHTDRGIPFEVVLAGIRAALRDGEKLLGIRHGLILSFLRHLSEEQAQKTLDQALPFRDAFIAVGLDSSEVGHPPSKFQRVFDRARSEGFLTVAHAGEEGPPEYIWEALDLLKVERIDHGVRAFEDERLMRRLIDEQIPLTVCPLSNTKLCVFDDMSQHTILDMLERGVKVTVNSDDPAYFGGYVTENFHALQQSLGMTEEQARRLAQNSLDARLVK", "soluble on expression in E. coli": "not soluble"},
      {"sequence": "MSIQIPRGTQDILPGTVELWQYIEGQAREICRRYNYKEIRTPIFEHTELFLRGVGDTTDIVQKEMYSFQDRGERSLTLRPEGTAPVVRSYVENKMFGDATQPTKLYYIGQMFRYERPQAGRYRQFVQFGIEAIGSNDPAIDAEVIALAVEFYRGMGLKNIKVVLNSLGDAASRQAHRDALIAHFEPRIGEFCSDCQSRLEKNPLRILDCKKDRNHELMGTAPSITEYLNEDSAVYYDKVQELLTMMDVPFEKDPNLVRGLDYYQHTVFEIMSEAEGFGAITTLSGGGRYNGLVQEIGGPEMPGIGFAMSIERLIMALKAENIELPIEHSIDCYVVALGEKAKDHAAKVAFDLRKAGLAVEKDYLDRKMKAQFKSADRLKAKFVAVLGEDELDKGIINLKDMATGEQEEVALDVFASYVAEKLI", "soluble on expression in E. coli": "soluble"},
      {"sequence": "MASPPPFHSQKLPGEYFRYKGVPFPVGLYSLESISLAENTQDVRDDDIFIITYPKSGTTWMIEIICLILKEGDPSWIRSVPIWERAPWCETIVGAFSLPDQYSPRLMSSHLPIQIFTKAFFSSKAKVIYMGRNPRDVVVSLYHYSKIAGQLKDPGTPDQFLRDFLKGEVQFGSWFDHIKGWLRMKGKDNFLFITYEELQQDLQGSVERICGFLGRPLGKEALGSVVAHSTFSAMKANTMSNYTLLPPSLLDHRRGAFLRKGVCGDWKNHFTVAQSEAFDRAYRKQMRGMPTFPWDEDPEEDGSPDPEPSPEPEPKPSLEPNTSLEREPRPNSSPSPSPGQASETPHPRPS", "soluble on expression in E. coli": "soluble"},
      {"sequence": "MGSDKIHHHHHHMRGIGLTHAFADISGLAFDRLFMVTETDGTFITARQFPQMVKFIPAPLHDGLHLSAPDGSSAVVRFSDFATQAEPTEVWGNHFTALIAPAAVNQWLSGFFKRDVQLRWLGPQLTRRVKRHDAVPLSFADGYPYLLANEASLRDLQQRCPASVSIEQFRPNLVVTGAAAWDEDSWKVIRIGEVVFDVAKPCSRCIFTTISPERGQKHPAGEPLETLKRFRTALDNGDVDFGQNLIARNSGVIRVGDEVEILTRGPAKAYGAGESDDTPAPEAQQQATVAIEWQGQQFTGNNQQVLLEQLEQQGIRVPYSCRAGICGSCRIRLEEGEVSPLKKNAVAGDGTILACSCVPKTALRLAP", "soluble on expression in E. coli": "not soluble"},
      {"sequence": "KQVYAFDIQKQALEKTQERLHQADLTNAQLILQGHETLDQFVIKAKAGIFNLGYLPAADKSVITRPQTTIEALEKLCGLLVKGGRIAIMIYYGHEGGDLERDAVLDFVIQLNQQEYTAAIYRTLNQVNNPPFLVMIEKLERYRH", "soluble on expression in E. coli": "not soluble"},
      {"sequence": "MSEELLQKFLTSIEQEDGIAEIGKKKKNKSAARRDNVKTILHAASKGQVQLSAEESYIVQKPSTSKGSDYIDDRLASQGFSLIDQARSFKPKDLKKRNLKYMKFQEGRRIDKKKGRILVQAHMQTKQDLKSLRKEKKAIIGVKEPRRLLPGQKKKQKDKSVFSDADFAQVAHVAKRINSMADHSFL", "soluble on expression in E. coli": "not soluble"},
      {"sequence": "MGSDKIHHHHHHMVSKMTNQRVLTVPGGINFRELGGYSTKDGRKIKWHKVIRTGGLDQLTPTGQALLDDYGVRYDIDFRSPQEVLDAPDRIPANAKYVYAPVFNVDETRNSDGTDKMTANLEKHPDSGFKHMLKVYQMVADEQHAKDEYRRFFDNLLANDQPDSTLLFHCTAGKDRTGMGAVYLLTALGVDFETIKQDYLLTNQASIGRINGAMAEARAQGASDATVESIRALWSVDADYLDAAMTEIKRQSGNLNHYLHTELKLTNNEINDLQRIYLE", "soluble on expression in E. coli": "not soluble"},
      {"sequence": "MCIGVPGQIRAIDGNQAKVDVCGIQRDVDLTLVGSCDENGQPRLGQWVLVHVGFAMSVINEAEARDTLDALQNMFDVEPDVGALLYGEER", "soluble on expression in E. coli": "not soluble"},
      {"sequence": "MEIFPAIDLKEGRCVRLYQGEFSKETVMNEDPVAQAIIFEKFGAKRLHIVDLDGAVAGESLNLSVIERICKAVRIPVQVGGGIRSLVAVEKLFSVGVDKVILGTAALYDKTFLEEAVLLYKEKIIVGIDAKNGFVATRGWLDVSEISYIDLAKQMEKIGVQTIVFTDISKDGTLAGPNIEQLELLQKSVAIRLIASGGVASIQDVKKLNDMNIYGVIIGKALYEKTIDLEEVVEVTKLC", "soluble on expression in E. coli": "not soluble"}
    ]}
  ]
}
